Drawing on US20250026827A1 (Alector, published 2025), this text covers Kd, binding result and FOB for 8 molecules.

Assay [1] has as its target T1, human SIRPβ1 domain 1 (D1) Fc fusion (human, UniProt O00241 30-148).
T1 construct: Made in HEK293/T cells with a heterologous signal peptide; also called Human SIRPβ1 D1-Fc; Human SIRPβ1-Fc; not shown: C-terminal human IgG1 Fc
The experiment in a line: Octet, IgG avid. (BLI is a label-free optical method that tracks binding on a fibre tip over time.)

The target of assay [2] is T2, human SIRPα on cells (human, UniProt P78324 31-504).
T2 construct: Whole entry
The experiment in a line: flow cytometry. Background: In flow cytometry, cells or beads pass a laser one at a time.

The target of assay [3] is T3, mouse SIRPα on cells (mouse, UniProt P97797 32-513).
T3 construct: whole, on cells
T3 sequence (looked up): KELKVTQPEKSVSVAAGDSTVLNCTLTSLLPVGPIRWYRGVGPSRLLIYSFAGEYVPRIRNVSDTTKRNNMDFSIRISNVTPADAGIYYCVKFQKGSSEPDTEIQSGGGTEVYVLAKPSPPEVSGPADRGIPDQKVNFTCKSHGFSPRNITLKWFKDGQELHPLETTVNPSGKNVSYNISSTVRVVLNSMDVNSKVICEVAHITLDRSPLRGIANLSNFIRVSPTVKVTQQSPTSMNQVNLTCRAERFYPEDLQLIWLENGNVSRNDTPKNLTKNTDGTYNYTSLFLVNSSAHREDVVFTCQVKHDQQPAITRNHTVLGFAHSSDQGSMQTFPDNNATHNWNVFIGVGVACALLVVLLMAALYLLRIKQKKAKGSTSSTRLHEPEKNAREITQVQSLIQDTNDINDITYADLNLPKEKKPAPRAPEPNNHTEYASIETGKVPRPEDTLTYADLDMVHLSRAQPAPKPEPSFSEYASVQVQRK
The experiment in a line: flow cytometry.

The target in assay [4] is T4, mouse SIRPβ1 on CHO cells (mouse).
T4 construct: Whole entry
T4 chain: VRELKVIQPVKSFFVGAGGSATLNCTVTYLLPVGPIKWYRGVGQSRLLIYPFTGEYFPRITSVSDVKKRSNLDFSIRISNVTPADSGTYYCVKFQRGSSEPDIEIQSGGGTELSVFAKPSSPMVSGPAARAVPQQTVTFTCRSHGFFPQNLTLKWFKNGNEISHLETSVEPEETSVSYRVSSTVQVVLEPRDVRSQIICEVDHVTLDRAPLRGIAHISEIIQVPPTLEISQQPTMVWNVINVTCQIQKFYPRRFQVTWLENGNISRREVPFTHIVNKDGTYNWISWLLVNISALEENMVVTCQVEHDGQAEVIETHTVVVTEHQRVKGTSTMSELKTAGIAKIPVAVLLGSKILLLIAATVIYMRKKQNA
Description: flow cytometry.

The target in another assay is T5, mouse SIRPα D1-Fc (mouse, UniProt P97797 32-150, limits assumed).
T5 construct: domain: D1
T5 sequence (looked up): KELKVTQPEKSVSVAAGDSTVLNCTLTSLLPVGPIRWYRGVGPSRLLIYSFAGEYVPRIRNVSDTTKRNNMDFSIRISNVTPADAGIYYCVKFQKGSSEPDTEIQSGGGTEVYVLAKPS
Description: Octet.

The target in assay [5] is T6, human SIRPα domain 1 (D1) Fc fusion (human, UniProt P78324 32-149).
T6 construct: also called human SIRPα D1-Fc; Human SIRPα Fc; not shown: C-terminal human IgG1 Fc
Description: Octet.

Assay [6] has as its target T7, human SIRPβ1 isoform 1 on cells (human, UniProt O00241 30-398).
T7 construct: On CHO cells (low level), on BWZ/BW5147.G.1.4 cells (reporter cells co-express human DAP12) or on primary human myeloid cells; also called huSIRPβ1; BWZ-huSIRPβ1
Description: flow cytometry.
Description: (§1) Initial characterization of anti-SIRPβ1 antibodies involved determining their ability to bind cell lines expressing human or mouse SIRPβ1. Cells were harvested, plated at 10⁶/ml in a 96-well plate, washed, and incubated in 100 μl FACS buffer containing 1 μg/ml anti-SIRPβ1 antibody for 0.5 hour on ice. Cells were then washed twice and incubated in 100 μl FACS buffer containing 0.5 μg/ml PE-conjugated secondary antibody for 30 minutes on ice. Cells were washed twice in cold FACS buffer and acquired on a BD FACS Canto. Data analysis and calculation of mean fluorescence intensity (MFI) values or 00 positive cells was performed with FlowJo (TreeStar) software version 10.0.7.
(§2) As a negative control, the anti-SIRPβ1 antibodies were also screened for surface binding to CHO cells overexpressing recombinant mouse SIRPβ31. […] Given the high sequence similarity between receptors of the SIRPβ family, anti-SIRPβ1 antibodies were also screened for cross-reactivity to human and mouse SIRPα.

The target in assay [7] is T2, human SIRPα on cells. The experiment in a line: flow cytometry. The source holds these as a separate data set.
Description: as §1, §2
Assay [8] has as its target T3, mouse SIRPα on cells. Description: flow cytometry. The source holds these as a separate data set.
Description: as §1, §2
Assay [9] addresses T4, mouse SIRPβ1 on CHO cells. Description: flow cytometry.
Description: as §1, §2
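For FOB in this document: antibodies tested at 1 µg/ml for 30 min on ice against receptor-expressing cells, detected with a PE-labelled secondary antibody, read as mean fluorescence intensity relative to background.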

T7 sequence (O00241 30-398): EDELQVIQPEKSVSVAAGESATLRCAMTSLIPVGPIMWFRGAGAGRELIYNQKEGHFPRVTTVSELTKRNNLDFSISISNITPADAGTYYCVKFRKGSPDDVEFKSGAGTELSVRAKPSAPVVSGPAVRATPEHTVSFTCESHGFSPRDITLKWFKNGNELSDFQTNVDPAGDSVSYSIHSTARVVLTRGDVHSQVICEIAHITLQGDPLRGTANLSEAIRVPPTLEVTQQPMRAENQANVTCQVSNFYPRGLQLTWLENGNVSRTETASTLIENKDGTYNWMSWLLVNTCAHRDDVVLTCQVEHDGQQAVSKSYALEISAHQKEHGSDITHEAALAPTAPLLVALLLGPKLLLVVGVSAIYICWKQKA
T1 sequence (O00241 30-148 limits assumed): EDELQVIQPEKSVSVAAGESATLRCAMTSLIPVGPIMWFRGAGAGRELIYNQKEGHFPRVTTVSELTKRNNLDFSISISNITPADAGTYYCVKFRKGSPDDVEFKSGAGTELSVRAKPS
Description for mouse SIRPα D1-Fc: Briefly, Octet affinity measurements were performed by loading IgGs on-line onto AHQ sensors. Sensors were equilibrated off-line in assay buffer for 30 min and then monitored on-line for 60 seconds for baseline establishment. For avid binding measurement, sensors with loaded IgGs were exposed to 100 nM antigen (human SIRPα domain 1 (D1) Fc fusion or SIRPβ1 domain 1 (D1) Fc fusion) for 3 min, and then transferred to assay buffer for 3 min for off-rate measurement. Additional avid binding was determined by loading biotinylated SIRPβ1 monomer on SA sensors and exposing to 100 nM IgG in solution. Monovalent binding measurements were obtained by loading human SIRPα- or SIRPβ1-Fc fusion antigens onto AHQ sensor, followed by exposure to 100 nM anti-SIRPβ1 antibody Fab. Additional monovalent measurements were made by loading biotinylated human SIRPα or SIRPβ1 monomer to SA sensor followed by exposure to 100 nM Fab in solution. Kinetics data were fit using a 1:1 binding model in the data analysis software provided by ForteBio (ForteBio Data Analysis Software 7.0).

B1: SB-47 (antibody, V domains shown)
VH: QLQLQESGPGLVKPSETLSLTCTVSGGSISSSSYAWGWIRQPPGKGLEWIGSIYYSGSTYYNPSLKSRVTISVDTSKNQFSLKLSSVTAADTAVYYCARDLGHYDYWSGSRDYYYGMDVWGQGTTVTVSS
VL: DIQMTQSPSSLSASVGDRVTITCQASQDISNYLNWYQQKPGKAPKLLIYDASNLETGVPSRFSGSGSGTDFTFTISSLQPEDIATYYCQQADYFPITFGGGTKVEIK
notes: IgG
Broadly, the Kd is the equilibrium constant for the complex coming apart. Low readings indicate tighter binding, high ones weaker binding. As for B1, the affinity in [1], expressed as Kd, was 14.4 nM. The binding result is recorded as “no binding (tested: 1 ug/ml)” in the assay with human SIRPα on cells [2]; “no binding (tested: 1 ug/ml)” with mouse SIRPα on cells [3]; “no binding (tested: 1 ug/ml)” in assay [4]; “no binding (tested: 100 nM)” with mouse SIRPα D1-Fc; “no binding (tested: 100 nM)” in assay [5]. Moreover, the FOB in assay [6] was found to be 1.6 fold over background; with human SIRPα on cells [7], 2.1 fold over background; with mouse SIRPα on cells [8] it was 1.7 fold over background; in assay [9] it was 1.3 fold over background.

B2: SB-46 (antibody, V domains shown)
VH: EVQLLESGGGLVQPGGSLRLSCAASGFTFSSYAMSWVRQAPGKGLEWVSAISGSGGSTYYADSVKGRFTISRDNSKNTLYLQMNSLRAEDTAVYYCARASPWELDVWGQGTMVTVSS
VL: EIVLTQSPGTLSLSPGERATLSCRASQSVRSSYLAWYQQKPGQAPRLLIYGASSRATGIPDRFSGSGSGTDFTLTISRLEPEDFAVYYCQQLYSSPYTFGGGTKVEIK
notes: IgG
B2: binding in assay [1] was put at a Kd of 20 nM. The binding result in the assay with human SIRPα on cells [2] is “no binding (tested: 1 ug/ml)”; with mouse SIRPα on cells [3] it was “no binding (tested: 1 ug/ml)”; in assay [4] it was “no binding (tested: 1 ug/ml)”; in the assay with mouse SIRPα D1-Fc, “no binding (tested: 100 nM)”; in assay [5], “no binding (tested: 100 nM)”. For the same molecule, the FOB in assay [6] stood at 5.3 fold over background; with human SIRPα on cells [7], 2.1 fold over background; with mouse SIRPα on cells [8], 1.4 fold over background; in [9], 1.3 fold over background.

B3: SB-45 (antibody, V domains shown)
VH: QVQLQESGPGLVKPSETLSLTCAVSGYSISSGYYWAWIRQPPGKGLEWIGSIYHSGSTYYNPSLKSRVTISVDTSKNQFSLKLSSVTAADTAVYYCARDLSRGYAVSGMDVWGQGTTVTVSS
VL: VLTQSPGTLSLSPGERATLSCRASQSVSSSFLAWYQQKPGQAPRLLIYGASSRATGIPDRFSGSGSGTDFTLTISRLEPEDFAVYYCQQVVSVPTFGGGTKVEIK
notes: IgG
Take B3: in assay [1], the affinity, expressed as Kd, was 13.9 nM. Further, the binding result with human SIRPα on cells [2] is given as “no binding (tested: 1 ug/ml)”; in the assay with mouse SIRPα on cells [3] it was “no binding (tested: 1 ug/ml)”; in [4], “no binding (tested: 1 ug/ml)”; with mouse SIRPα D1-Fc, “no binding (tested: 100 nM)”; in [5] it was “no binding (tested: 100 nM)”. For the same molecule, the FOB in assay [6] worked out at 8.5 fold over background; in the assay with human SIRPα on cells [7] it was 2.5 fold over background; with mouse SIRPα on cells [8], 1.2 fold over background; in assay [9] it was 1.4 fold over background.

B4: SB-43 (antibody, V domains shown)
VH: QVQLQESGPGLVKPSETLSLTCAVSGYSISSGYYWAWIRQPPGKGLEWIGSIYHSGSTYYNPSLKSRVTISVDTSKNQFSLKLSSVTAADTAVYYCARDAPGYPMLGMDVWGQGTTVSVSS
VL: EIVLTQSPATLSLSPGERATLSCRASQSVSSYLAWYQQKPGQAPRLLIYDASKRATGIPARFSGSGSGTDFTLTISSLEPEDFAVYYCQQRFDFPITFGGGTKVEIK
notes: IgG
On to B4, for which, in assay [1], binding was characterised by a dissociation constant (Kd) of 12.3 nM. Besides, the binding result with human SIRPα on cells [2] is given as “no binding (tested: 1 ug/ml)”; in the assay with mouse SIRPα on cells [3], “no binding (tested: 1 ug/ml)”; in [4], “no binding (tested: 1 ug/ml)”; with mouse SIRPα D1-Fc, “no binding (tested: 100 nM)”; in [5], “no binding (tested: 100 nM)”. Further, the FOB was found to be 2.8 fold over background in [6], 2.3 fold over background in the assay with human SIRPα on cells [7], 1.6 fold over background with mouse SIRPα on cells [8] and 1.1 fold over background in assay [9].

B5: SB-38 (antibody, V domains shown)
VH: QVQLVQSGAEVKKPGASVKVSCKASGYTFTSYYMHWVRQAPGQGLEWMGIINPSGGSTSYAQKFQGRVTMTRDTSTSTVYMELSSLRSEDTAVYYCARESGTDFGTISYWGQGTLVTVSS
VL: DIQMTQSPSSVSASVGDRVTITCRASQGISSWLAWYQQKPGKAPKLLIYAASSLQSGVPSRFSGSGSGTDFTLTISSLQPEDFATYYCQQAVSYPITFGGGTKVEIK
notes: IgG
In [1], B5 displayed a Kd of 7.33 nM. In addition, the binding result with human SIRPα on cells [2] is reported as “no binding (tested: 1 ug/ml)”; with mouse SIRPα on cells [3] it was “no binding (tested: 1 ug/ml)”; in [4], “no binding (tested: 1 ug/ml)”; in the assay with mouse SIRPα D1-Fc, “no binding (tested: 100 nM)”; in assay [5], “no binding (tested: 100 nM)”. For the same molecule, the FOB in assay [6] stood at 1.5 fold over background; in the assay with human SIRPα on cells [7] it was 2.1 fold over background; in the assay with mouse SIRPα on cells [8] it was 1.1 fold over background; in assay [9] it was 1.3 fold over background.

B6: SB-48 (antibody, V domains shown)
VH: QVQLVESGGGVVQPGRSLRLSCAASGFTFSSYGMHWVRQAPGKGLEWVAVISYDGSNKYYADSVKGRFTISRDNSKNTLYLQMNSLRAEDTAVYYCARDGTIAAAGWPPEYFQHWGQGTLVTVSS
VL: DIQMTQSPSSVSASVGDRVTITCRASQGIDSWLAWYQQKPGKAPKLLIYAASSLQSGVPSRFSGSGSGTDFTLTISSLQPEDFATYYCQQASNFPITFGGGTKVEIK
notes: IgG
In assay [1], B6 registered a Kd of 27.7 nM. Also, the binding result was “no binding (tested: 1 ug/ml)” in the assay with human SIRPα on cells [2]; “no binding (tested: 1 ug/ml)” with mouse SIRPα on cells [3]; “no binding (tested: 1 ug/ml)” in assay [4]; “no binding (tested: 100 nM)” in the assay with mouse SIRPα D1-Fc; “no binding (tested: 100 nM)” in assay [5]. Besides, the FOB was 1.7 fold over background in assay [6], 2.1 fold over background with human SIRPα on cells [7], 2.4 fold over background in the assay with mouse SIRPα on cells [8] and 1.1 fold over background in [9].

B7: SB-44 (antibody, V domains shown)
VH: EVQLVESGGGLVQPGGSLRLSCAASGFTVSSNYMSWVRQAPGKGLEWVSVIYSGGDTYYADSVKGRFTISRDNSKNTLYLQMNSLRAEDTAVYYCAREGSSFWSGSAVSYYGMDVWGQGTTVTVSS
VL: DIQMTQSPSTLSASVGDRVTITCRASQSIGSWLAWYQQKPGKAPKLLIYKASSLESGVPSRFSGSGSGTEFTLTISSLQPDDFATYYCQEYGSYRTFGGGTKVEIK
notes: IgG
Molecule B7 returned a Kd in [1] of 18.9 nM. Moreover, the binding result in the assay with human SIRPα on cells [2] is “no binding (tested: 1 ug/ml)”; with mouse SIRPα on cells [3] it was “no binding (tested: 1 ug/ml)”; in [4], “no binding (tested: 1 ug/ml)”; in the assay with mouse SIRPα D1-Fc, “no binding (tested: 100 nM)”; in [5], “no binding (tested: 100 nM)”. In addition, the FOB in assay [6] is 2.8 fold over background; in the assay with human SIRPα on cells [7], 2.9 fold over background; with mouse SIRPα on cells [8], 1.2 fold over background; in assay [9], 1.5 fold over background.

B8: SB-42 (antibody, V domains shown)
VH: QVQLVQSGAEVKKPGASVKVSCKASGYTFTSYGISWVRQAPGQGLEWMGWISAYNGNTNYAQKLQGRVTMTTDTSTSTAYMELRSLRSDDTAVYYCARGPGHYYVAGMDVWGQGTTVTVSS
VL: EIVMTQSPATLSVSPGERATITCRASQSISSYLNWYQQKPGKAPKLLIYSASSLQSGVPSRFSGSGSGTDFTLTISSLQPEDFATYYCQQGDSFPITFGGGTKVEIK
notes: IgG
Take B8: the Kd in assay [1] is 12.3 nM. The binding result with human SIRPα on cells [2] is given as “no binding (tested: 1 ug/ml)”; with mouse SIRPα on cells [3], “no binding (tested: 1 ug/ml)”; in assay [4] it was “no binding (tested: 1 ug/ml)”; with mouse SIRPα D1-Fc, “no binding (tested: 100 nM)”; in [5], “no binding (tested: 100 nM)”. The FOB stood at 3.3 fold over background in [6], 2.7 fold over background with human SIRPα on cells [7], 1.2 fold over background with mouse SIRPα on cells [8] and 1.2 fold over background in assay [9].
